Measured values as given in US20230265151A1, “GIP/GLP1 CO-AGONIST COMPOUNDS” (priority 2020, published 2023).
Substitutions are numbered along the chain they refer to. *1 amine or outer side, *2 acyl side, *3 side chain or, on linkers, in order; H or OH if unused. Where no end group is shown, it is not given here. Side-chain parts run from the residue outwards. [ ]: non-standard residue; d: D form. The star is where a group is joined. Decanoyl(10-(4-HOOC-PhO)) = O=C(O)c1ccc(OCCCCCCCCCC(=O)*)cc1; αMePhe(2-F) = C[C@](N)(Cc1ccccc1F)C(=O)O; γGlu = O=C(O)[C@H](CCC(=O)[*:2])N[*:1]; αMeY = C[C@](N)(Cc1ccc(O)cc1)C(=O)O; αMeL = CC(C)C[C@](C)(N)C(=O)O; Nle = CCCC[C@H](N)C(=O)O; Orn = NCCC[C@H](N)C(=O)O; AEEA = NCCOCCOCC(=O)O; Aib = CC(C)(N)C(=O)O

T1: human GIP receptor (human, UniProt P48546 22-466)
T1 sequence (looked up): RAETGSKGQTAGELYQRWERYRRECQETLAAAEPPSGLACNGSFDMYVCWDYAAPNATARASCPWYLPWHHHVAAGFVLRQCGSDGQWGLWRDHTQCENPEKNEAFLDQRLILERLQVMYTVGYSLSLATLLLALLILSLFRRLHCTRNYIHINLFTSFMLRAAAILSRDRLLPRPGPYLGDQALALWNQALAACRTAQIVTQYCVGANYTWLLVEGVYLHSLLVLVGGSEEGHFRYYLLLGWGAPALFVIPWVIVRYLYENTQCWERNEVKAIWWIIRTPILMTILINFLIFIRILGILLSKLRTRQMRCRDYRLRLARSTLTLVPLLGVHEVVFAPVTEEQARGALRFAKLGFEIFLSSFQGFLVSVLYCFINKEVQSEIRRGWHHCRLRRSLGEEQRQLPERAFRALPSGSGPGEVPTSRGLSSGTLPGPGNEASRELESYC

T2: human GIP receptor (human) (UniProt P48546)
T2 sequence (looked up): T1 sequence (looked up)

B1: Example 320 (peptide)
peptide: YXEGTXTSDXSIXLDXKAQXKFIXXLIEGGPSSGAPPPS
modifications: Y-Aib-EGT-αMeF(2F)-TSD-hTyr-SI-αMeL-LD-Orn-K((2-[2-(2-Amino-ethoxy)-ethoxy]-acetyl)2-(y-Glu)-(10-(4-carboxyphenoxy)decanoyl))AQ-Aib-K((2-[2-(2-Amino-ethoxy)-ethoxy]-acetyl)2-(γ-Glu)-(10-(4-carboxyphenoxy)decanoyl))FI-(D-Glu)-αMeY-LIEGGPSSGAPPPS-NH2
B2: Example 335 (peptide)
peptide: B1 peptide with K21E, E28K
modifications: Y-Aib-EGT-αMeF(2F)-TSD-hTyr-SI-αMeL-LD-Orn-K((2-[2-(2-Amino-ethoxy)-ethoxy]-acetyl)2-(γ-Glu)-CO-(CH2)10-CH3)AQ-Aib-EFI-(D-Glu)-αMeY-LIK((2-[2-(2-Amino-ethoxy)-ethoxy]-acetyl)2-(γ-Glu)-CO-(CH2)10-CH3)GGPSSGAPPPS-NH2
B3: Example 307 (peptide)
peptide: YXEGTXTSDYXIXLDXIAQXEFIKXLIKGGPSSGAPPPS
modifications: Y-Aib-EGT-αMeF(2F)-TSDY-αMeS-I-αMeL-LD-Orn-IAQ-Aib-EFIK((2-[2-(2-Amino-ethoxy)-ethoxy]-acetyl)2-(γ-Glu)-(10-(4-carboxyphenoxy)decanoyl))-αMeY-LIK((2-[2-(2-Amino-ethoxy)-ethoxy]-acetyl)2-(γ-Glu)-(10-(4-carboxyphenoxy)decanoyl))GGPSSGAPPPS-NH2
B4: Example 293 (peptide)
peptide: B1 peptide with X10K, K21E, F22X
modifications: Y-Aib-EGT-αMeF(2F)-TSDK((2-[2-(2-Amino-ethoxy)-ethoxy]-acetyl)2-(γ-Glu)-CO-(CH2)10-CH3)SI-αMeL-LD-Orn-K((2-[2-(2-Amino-ethoxy)-ethoxy]-acetyl)2-(γ-Glu)-CO-(CH2)10-CH3)AQ-Aib-E-αMeF-I-(D-Glu)-αMeY-LIEGGPSSGAPPPS-NH2
B5: Example 345 (peptide)
peptide: B3 peptide with Y10X
modifications: Y-Aib-EGT-αMeF(2F)-TSD-4Pal-Aib-I-αMeL-LD-Orn-IAQ-Aib-EFIK((2-[2-(2-Amino-ethoxy)-ethoxy]-acetyl)3-(γ-Glu)-(10-(4-carboxyphenoxy)decanoyl))-αMeY-LIK((2-[2-(2-Amino-ethoxy)-ethoxy]-acetyl)3-(γ-Glu)-(10-(4-carboxyphenoxy)decanoyl))GGPSSGAPPPS-NH2
B6: Example 346 (peptide)
peptide: B3 peptide
modifications: Y-Aib-EGT-αMeF(2F)-TSDY-Aib-I-αMeL-LD-Orn-IAQ-Aib-EFIK(2-[2-(2-Amino-ethoxy)-ethoxy]-acetyl)3-(γ-Glu)-(10-(4-carboxyphenoxy)decanoyl)-αMeY-LIK((2-[2-(2-Amino-ethoxy)-ethoxy]-acetyl)3-(γ-Glu)-(10-(4-carboxyphenoxy)decanoyl)GGPSSGAPPPS-NH2)
B7: Example 327 (peptide)
peptide: B1 peptide with K21E, E28K
modifications: Y-Aib-EGT-αMeF(2F)-TSD-hTyr-SI-αMeL-LD-Orn-K((2-[2-(2-Amino-ethoxy)-ethoxy]-acetyl)2-(γ-Glu)-(10-(4-carboxyphenoxy)decanoyl))AQ-Aib-EFI-(D-Glu)-αMeY-LIK((2-[2-(2-Amino-ethoxy)-ethoxy]-acetyl)2-(γ-Glu)-(10-(4-carboxyphenoxy)decanoyl))GGPSSGAPPPS-NH2
B8: Example 303 (peptide)
peptide: B3 peptide
modifications: Y-Aib-EGT-αMeF(2F)-TSDY-αMeS-I-αMeL-LD-Orn-IAQ-Aib-EFIK((2-[2-(2-Amino-ethoxy)-ethoxy]-acetyl)2-(γ-Glu)-CO-(CH2)12-CO2H)-αMeY-LIK((2-[2-(2-Amino-ethoxy)-ethoxy]-acetyl)2-(γ-Glu)-CO-(CH2)12-CO2H)GGPSSGAPPPS-NH2
B9: Example 311 (peptide)
peptide: B3 peptide with Y10X
modifications: Y-Aib-EGT-αMeF(2F)-TSD-4Pal-Aib-I-αMeL-LD-Orn-IAQ-Aib-EFIK(2-[2-(2-Amino-ethoxy)-ethoxy]-acetyl)2-(γ-Glu)-(11-(4-carboxyphenoxy)undecanoyl)-αMeY-LIK((2-[2-(2-Amino-ethoxy)-ethoxy]-acetyl)2-(γ-Glu)-(11-(4-carboxyphenoxy)undecanoyl)GGPSSGAPPPS-NH2)
B10: Example 310 (peptide)
peptide: B3 peptide with Y10X, X11S
modifications: Y-Aib-EGT-αMeF(2F)-TSD-hTyr-SI-αMeL-LD-Orn-IAQ-Aib-EFIK((2-[2-(2-Amino-ethoxy)-ethoxy]-acetyl)2-(γ-Glu)-(10-(4-carboxyphenoxy)decanoyl))-αMeY-LIK((2-[2-(2-Amino-ethoxy)-ethoxy]-acetyl)2-(γ-Glu)-(10-(4-carboxyphenoxy)decanoyl))GGPSSGAPPPS-NH2
B11: Example 315 (peptide)
peptide: B3 peptide with Y10X, E21X
modifications: Y-Aib-EGT-αMeF(2F)-TSD-4Pal-Aib-I-αMeL-LD-Orn-IAQ-Aib-Orn-FIK((2-[2-(2-Amino-ethoxy)-ethoxy]-acetyl)2-(γ-Glu)-CO-(CH2)12-CO2H)-αMeY-LIK((2-[2-(2-Amino-ethoxy)-ethoxy]-acetyl)2-(γ-Glu)-CO-(CH2)12-CO2H)GGPSSGAPPPS-NH2
B12: Example 316 (peptide)
peptide: B3 peptide with E21X
modifications: Y-Aib-EGT-αMeF(2F)-TSDY-Aib-I-αMeL-LD-Orn-IAQ-Aib-Orn-FIK((2-[2-(2-Amino-ethoxy)-ethoxy]-acetyl)2-(γ-Glu)-CO-(CH2)12-CO2H)-αMeY-LIK((2-[2-(2-Amino-ethoxy)-ethoxy]-acetyl)2-(γ-Glu)-CO-(CH2)12-CO2H)GGPSSGAPPPS-NH2
B13: Example 332 (peptide)
peptide: B1 peptide with K17I, E28K
modifications: Y-Aib-EGT-αMeF(2F)-TSD-hTyr-SI-αMeL-LD-Orn-IAQ-Aib-K((2-[2-(2-Amino-ethoxy)-ethoxy]-acetyl)2-(γ-Glu)-(10-(4-carboxyphenoxy)decanoyl))FI-(D-Glu)-αMeY-LIK((2-[2-(2-Amino-ethoxy)-ethoxy]-acetyl)2-(γ-Glu)-(10-(4-carboxyphenoxy)decanoyl))GGPSSGAPPPS-NH2

Target: human GLP-1 receptor (human, UniProt P43220 24-463)
Assay: cell-based or functional assay

Binder | cAMP EC50 (1.0% HSA) [nM] | cAMP Emax (1.0% HSA) [%]
B1 | 6.22 | –
B2 | 12.3 | –
B3 | 33 | –
B4 | 10.7 | 99.4
B5 | 11.8 | –
B6 | 19 | 97.7
B7 | 13.6 | –
B8 | 50.4 | –
B9 | 33.8 | –
B10 | 22 | –
B11 | 5.38 | 93.5
B12 | 19.2 | 113
B13 | 33.3 | 116
Y[Aib]EGT[αMePhe(2-F)]TSD[Nle]SI[αMeL]LD[Orn]IAQ[Aib]EFIK([AEEA-AEEA-γGlu-Decanoyl(10-(4-HOOC-PhO))])[αMeY]LIK([AEEA-AEEA-γGlu-Decanoyl(10-(4-HOOC-PhO))])GGPSSGAPPPS-NH2 [Example 314] | 38.6 | –

Target: T1, human GIP receptor
Assay: cell-based or functional assay

Binder | cAMP EC50 (1.0% HSA) [nM] | cAMP Emax (1.0% HSA) [%]
B1 | 0.338 | 84.1
B2 | 1.04 | –
B3 | 1.66 | 81.8
B4 | 0.987 | 96.6
B5 | 0.731 | –
B6 | 1.83 | 83.9
B7 | 0.751 | –
B8 | 2 | 89.8
B9 | 2.16 | 98.3
B10 | 2.4 | 83.9
B11 | 0.393 | 89.2
B12 | 1.11 | –
B13 | 4.59 | –
Y[Aib]EGT[αMePhe(2-F)]TSD[Nle]SI[αMeL]LD[Orn]IAQ[Aib]EFIK([AEEA-AEEA-γGlu-Decanoyl(10-(4-HOOC-PhO))])[αMeY]LIK([AEEA-AEEA-γGlu-Decanoyl(10-(4-HOOC-PhO))])GGPSSGAPPPS-NH2 [Example 314] | 3.51 | –

Target: human glucagon receptor (human, UniProt P47871 26-477)
Assay: cell-based or functional assay

Binder | cAMP EC50 (1.0% HSA) [nM]
B1 | > 9950
B2 | > 9950
B3 | > 9950
B4 | > 9950
B5 | > 9950
B6 | > 9950
B7 | > 9950
B8 | > 9950
B9 | > 9950
B10 | > 9950
B11 | > 9950
B12 | > 9950
B13 | > 9950
Y[Aib]EGT[αMePhe(2-F)]TSD[Nle]SI[αMeL]LD[Orn]IAQ[Aib]EFIK([AEEA-AEEA-γGlu-Decanoyl(10-(4-HOOC-PhO))])[αMeY]LIK([AEEA-AEEA-γGlu-Decanoyl(10-(4-HOOC-PhO))])GGPSSGAPPPS-NH2 [Example 314] | > 9950

Target: hGLP-1R (Homo sapiens, UniProt P43220)
Assay: cell-based or functional assay

Binder | cAMP EC50 [nM] | cAMP Emax [%]
B4 | 0.102 | 102

Target: human glucagon receptor (human) (UniProt P47871)
Assay: cell-based or functional assay

Binder | cAMP EC50 [nM]
B4 | > 9950

Target: T2, human GIP receptor (human)
Assay: cell-based or functional assay

Binder | cAMP EC50 [nM] | cAMP Emax [%]
B4 | 0.00915 | 102
